pKd: −log10 of the molar value.
Biological target: His-DnaNCg (Corynebacterium glutamicum sliding clamp, beta-clamp), purified (Corynebacterium glutamicum)
Assay: BLI

Substance	pKd
EndoMSCg (Corynebacterium glutamicum EndoMS/NucS), wild type, purified untagged protein (enzyme)	6.73
EndoMSCg D144A mutant protein (enzyme)	6.74

From paper PMC6159521
